Data from patent US20090081183A1, “HIV Transcription Repressor Complex and Compositions and Methods Based Thereon” (priority 1997, published 2009).
Where two headings read alike, the source gives them in different places.

T1: LSF (Homo sapiens, UniProt Q12800, A491Q)
T1 construct: host or cells: in vitro transcription/translation in rabbit reticulocyte lysate (T7 RNA polymerase)
T1 sequence (Q12800 1-502 A491Q): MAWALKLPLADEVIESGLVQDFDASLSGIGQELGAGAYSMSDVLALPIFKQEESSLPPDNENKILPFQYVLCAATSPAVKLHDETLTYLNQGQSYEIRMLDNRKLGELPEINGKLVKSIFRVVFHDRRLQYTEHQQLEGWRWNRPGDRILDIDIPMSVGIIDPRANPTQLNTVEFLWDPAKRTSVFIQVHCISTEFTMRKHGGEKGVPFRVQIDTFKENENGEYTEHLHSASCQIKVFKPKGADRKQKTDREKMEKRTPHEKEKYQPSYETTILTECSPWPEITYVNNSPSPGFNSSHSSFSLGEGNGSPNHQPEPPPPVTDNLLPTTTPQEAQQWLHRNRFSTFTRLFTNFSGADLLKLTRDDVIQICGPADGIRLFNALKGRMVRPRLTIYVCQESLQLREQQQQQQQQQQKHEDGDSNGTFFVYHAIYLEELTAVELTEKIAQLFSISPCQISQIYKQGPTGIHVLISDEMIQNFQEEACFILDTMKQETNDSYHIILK


Legend:
LSF = biological target: T1, LSF; experiment: In vitro protein interaction mapping: GST-YY1/GFI-1 chimeras retaining 35S-labeled LSF; format: binding; conditions: glutathione-agarose capture, 35S-methionine labeled LSF
Source text: In vitro protein interaction mapping: Glutathione-S-transferase (GST)-YY1/GFI-1 chimeras (17) and G3ST-LSF deletion (54, 55) constructs were expressed and harvested in E. coli as previously described. Proteins were visualized by Coomassie brilliant blue staining and protein content was normalized by densitometric analysis. LSF was transcribed and translated in vitro by T7 RNA polymerase in rabbit reticulocyte (Promega, Madison, Wis.) in the presence of ^35S-methionine as per manufacturer's instruction (54). Following capture of GST-YY1/GFI-1 chimera proteins on glutathione-agarose beads, equal volumes of beads were incubated with ^35S-methionine labeled LSF in incubation buffer (17) for 1 hour at 4° C. The beads were washed in incubation buffer/100 mM KCl and resuspended in 20 μl 2×SDS loading buffer. Retained LSF was separated in a 10% SDS gel, dried, and visualized by autoradiography. Similarly, YY1 was transcribed and translated in vitro, incubated with captured GST-LSF constructs, and retained YY1 was by autoradiography following electrophoresis.
YY1 DNA-binding activity and many YY1-protein interactions map to the carboxyl-terminal zinc fingers of the molecule. Therefore, YY1 interaction domains were mapped using chimeric YY1 recombinants (FIG. 2c). […]

[1] = test system: RCS oligonucleotide (−10 to +27 of HIV-1 LTR); format: binding
HIV-1 LTR = experiment: Tat-activated integrated LTR-CAT reporter assay in HeLa-CD4-LTR cells; format: cell-based
Procedure: Cell lines transfections and assays. Transfections of HeLa cells were performed as previously described (49). HeLa-CD4-LTR (9) cells were grown in DMEM supplemented with 10% FCS and transfected with 20 μg plasmid DNA (prepared using EndoFree plasmid kit, Qiagen, Valencia, Calif.) by calcium phosphate coprecipitation as per manufacturer's instructions (ProFection system, Promega, Madison, Wis.). After 30 minutes at room temperature, the solution was added to the cells (2.5-4×10^5 cells/plate). Twelve hours after transfection, the cells were washed with PBS and fed fresh medium. Forty-eight hours later the cells were harvested, cellular extracts prepared, and CAT assays performed as previously described (49). To control for the effect of transcription factor overexpression on general cellular promoters a reporter construct driven by the beta-actin promoter, pH[…]-actin-luciferase (66), was used in cotransfection and CAT expression normalized for luciferase activity. Other plasmids used have been previously described (2, 49). […] Up to 30 μl of cellular extract (normalized for protein concentration) in a final volume of 130 μl was used for luciferase reactions.
The LTR reporter carried by HeLa-CD4-LTR cell line exists within the native chromatin structure of the genome. […]

Molecule	Binding of LSF in vitro by GST-fused construct (LSF)	Complex formation with the RCS in EMSA ([1]; 10 ng protein alone)	Complex formation with the RCS in EMSA ([1]; 20 ng protein alone)	Tat-activated CAT expression from integrated LTR reporter (HIV-1 LTR; 200 ng pAR-Tat, 2.5 μg CMV expression plasmid, normalized to β-actin-luciferase)	Effect on YY1-mediated repression of integrated LTR-CAT expression (HIV-1 LTR; with YY1 transfection, trichostatin-A added to culture medium (data not shown))
YZnFs: GST fused to all four YY1 zinc fingers without the YY1 amino-terminal region (protein, left off: a dimerising Fc or GST, GST fused to all four YY1 zinc fingers without the YY1 amino-terminal region) TIACPHKGCTKMFRDNSAMRKHLHTHGPRVHVCAECGKAFVESSKLKRHQLVHTGEKPFQCTFEGCGKRFSLDFNLRTHVRIHTGDRPYVCPFDGCNKKFAQSTNLKSHILTHAKAKNNQ	binds LSF with equal avidity to intact GST-YY1				
LSF: lymphoid transcription factor (LBF-1, CP-2) that represses LTR-driven transcription (SEQ ID NO: 5) (protein, listed as Homo sapiens) MAWALKLPLADEVIESGLVQDFDASLSGIGQELGAGAYSMSDVLALPIFKQEESSLPPDNENKILPFQYVLCAATSPAVKLHDETLTYLNQGQSYEIRMLDNRKLGELPEINGKLVKSIFRVVFHDRRLQYTEHQQLEGWRWNRPGDRILDIDIPMSVGIIDPRANPTQLNTVEFLWDPAKRTSVFIQVHCISTEFTMRKHGGEKGVPFRVQIDTFKENENGEYTEHLHSASCQIKVFKPKGADRKQKTDREKMEKRTPHEKEKYQPSYETTILTECSPWPEITYVNNSPSPGFNSSHSSFSLGEGNGSPNHQPEPPPPVTDNLLPTTTPQEAQQWLHRNRFSTFTRLFTNFSGADLLKLTRDDVIQICGPADGIRLFNALKGRMVRPRLTIYVCQESLQLREQQQQQQQQQQKHEDGDSNGTFFVYHAIYLEELTAVELTEKIAQLFSISPCQISQIYKQGPTGIHVLISDEMIQNFQEEACFILDTMKQETNDSYHIILK		formed a diffuse faintly visible EMSA band	induced a very prominent protein-DNA complex	had no effect on expression of CAT	augmented repression mediated by YY1
